Laboratory results taken from patent US11559589B2, “Compositions and methods for detection and modulation of T cell mediated immune responses against viral vectors utilized for gene therapy” (The Children's Hospital of Philadelphia, priority 2006, dated 2023).
Read-outs that look alike come from different tables or passages of the source.

B1: AAV-a-AJ31 (TCR, V domains shown)
Valpha: SQQGEEDPQALSIQEGENATMNCSYKTSINNLQWYRQNSGRGLVHLILIRSNEREKHSGRLRVTLDTSKKSSSLLITASRAADTASYFCATLYNARLMFGDGTQLVVKP
Vbeta: NAGVTQTPKFRVLKTGQSMTLLCAQDMNHEYMYWYRQDPGMGLRLIHYSVGEGTTAKGEVPDGYNVSRLKKQNFLLGLESAAPSQTSVYFCASRSGSAGAFFGQGTRLTVV
B2: p74-scTCR multimer: PE-conjugated multimer generated from biotinylated AAV-a-AJ31 scTCR-BirA fusion protein (protein)
alpha: SQQGEEDPQALSIQEGENATMNCSYKTSINNLQWYRQNSGRGLVHLILIRSNEREKHSGRLRVTLDTSKKSSSLLITASRAADTASYFCATLYNARLMFGDGTQLVVKP
beta: NAGVTQTPKFRVLKTGQSMTLLCAQDMNHEYMYWYRQDPGMGLRLIHYSVGEGTTAKGEVPDGYNVSRLKKQNFLLGLESAAPSQTSVYFCASRSGSAGAFFGQGTRLTVV
modifications: left off: things letters cannot carry; a dimerising Fc or GST; small tags and cut ends
notes: PE-conjugated multimer generated from biotinylated AAV-a-AJ31 scTCR-BirA fusion protein
B3: AAV-b-scTCR-BirA (TCR, V domains shown)
Valpha: TQLLEQSPQFLSIQEGENLTVYCNSSSVFSSLQWYRQEPGEGPVLLVTVVTGGEVKKLKRLTFQFGDARKDSSLHITAAQPGDTGLYLCAGKKTNDYKLSFGAGTTVTVRA
Vbeta: ETGVTQTPRHLVMGMTNKESLKCEQHLGHNAMYWYKQSAKKPLELMFVYSLEERVENNSVPSRFSPECPNSSHLFLHLHTLQPEDSALYLCASSQDRVNLAGEQYFGPGTRLTVT

What was measured:
[1] = target: T1, AAV-2 capsid (AAV-p74 peptide) peptide on HLA-B*07:02 (human); experiment: multimer staining
T1 peptide: VPQYGYLTL

[2] = target: MHC molecules displaying the AAV peptide epitopes on Malme-3 fibroblasts (UniProt P01889+P03135)
Chain of MHC molecules displaying the AAV peptide epitopes on Malme-3 fibroblasts (P61769 21-119): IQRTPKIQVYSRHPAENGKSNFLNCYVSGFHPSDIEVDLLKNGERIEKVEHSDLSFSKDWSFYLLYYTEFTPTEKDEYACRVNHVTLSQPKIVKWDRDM
Chain of MHC molecules displaying the AAV peptide epitopes on Malme-3 fibroblasts (P01889 25-362): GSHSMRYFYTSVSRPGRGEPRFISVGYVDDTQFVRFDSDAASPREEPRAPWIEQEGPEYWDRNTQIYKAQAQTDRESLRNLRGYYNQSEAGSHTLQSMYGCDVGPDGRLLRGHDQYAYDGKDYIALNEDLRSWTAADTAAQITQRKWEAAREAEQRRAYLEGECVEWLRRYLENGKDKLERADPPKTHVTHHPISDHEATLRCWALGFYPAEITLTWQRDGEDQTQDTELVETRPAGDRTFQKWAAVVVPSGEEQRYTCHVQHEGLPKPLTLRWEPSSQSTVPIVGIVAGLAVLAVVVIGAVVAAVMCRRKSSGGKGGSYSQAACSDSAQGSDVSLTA
Procedure: AAV-scTCR multimer was tested in vitro using a normal human fibroblast cell line positive for HLA-B*0702 (Malme-3 available from the ATCC repository). Cells were peptide loaded with AAV capsid epitopes at a concentration of 10 ug/ml for 2 hrs at 37° C. and then stained with the AAV-scTCR multimer (FIG. 10); alternatively, cells were transduced with an AAV vector at an MOI of 5×10^5 or 1×10^6 and stained 24 or 48 hours later (FIG. 11).

[3] = target: AAV-p74 peptide/HLA-B7 complexes on cell surface of JyA2B7 cells (UniProt P01889+P03135); settings: for minimum AAV-p74 peptide loading concentration stained: 0.5 μg multimer
Chain of AAV-p74 peptide/HLA-B7 complexes on cell surface of JyA2B7 cells (P61769 21-119): as the sequence (P61769 21-119) above
Chain of AAV-p74 peptide/HLA-B7 complexes on cell surface of JyA2B7 cells (P01889 25-362): as the sequence (P01889 25-362) above
From the text: AAV-p74 peptide loaded HLA-B7-positive human lymphoblastoid cell line (JyA2B7) was used to determine whether AAV-a-scTCR can bind to AAV-p74 peptide/HLA-B7 complexes on cell surface.

[4] = test system: lymph node cells and splenocytes from HLA-B*0702 transgenic mice; experiment: AAV-scTCR multimer staining of cells from HLA-B*0702 transgenic mice after intravenous AAV vector; assay type: cell-based
From the text: FIGS. 12A and 12B are a pair of histograms swing AAV-scTCR multimer staining of CD11c+CD19-cells collected from HLA B*0702 mice one week after intravenous infusion of 1E11 vector genomes (vg) of AAV.

Molecule	binding result [1]	staining of peptide-loaded fibroblasts ([2]; AAV capsid epitopes 10 ug/ml, 2 hrs, 37° C.)	staining of AAV-transduced fibroblasts ([2]; AAV vector MOI 5×10^5 or 1×10^6, stained 24 or 48 hours later)	minimum AAV-p74 peptide loading concentration stained ([3]; PLE added during loading)	minimum AAV-p74 peptide loading concentration stained ([3]; typical conditions)	staining of JyA2B7 cells ([3]; cells loaded with 50 μg/ml AAV-p74 peptide, 0.025 μg/test multimer)	staining of lymph node cells and splenocytes [4]
B1	recognises	–	–	–	–	–	–
B2	–	positive staining	positive staining	1 µg/mL	5 µg/mL	Specific staining	positive staining
B3	recognises	–	–	–	–	–	–
